Test results taken from patent publication US8580556B2, “Sulfonylurea-responsive repressor proteins” (E. I. du Pont de Nemours and Company, priority 2008, dated 2013).

B1: L1-33: library L1 reverse repressor hit (SEQ ID NO: 1206-1213) (protein)
chain: MGSRLDKSKVINSALELLNEVGIEGLTTRKLAQKLGVEQPTLYWHVKNKRALLDALAIEMLDRHATHFCPLEGESWQDFLRNNAKSMRCALLSHRDGAKVQLGTAATEKQYETLENKLAFLCQQGFSLENALYAHSAVTQFTLGCVLRDQEGQVAKEERETPTTDSMPPLLRQARELRDHQGAEPAFLFGLELIICGLEKQLKCESGS
modifications: rSuR L1-33
B2: L1-34: library L1 reverse repressor hit (SEQ ID NO: 1206-1213) (protein)
chain: MGSRLDKSKVINSALELLNEVGIEGLTTRKLAQKLGVEQPTLYWHVKNKRALLDALAIEMADRHNTHFCPLEGESWQDFLRNAARSMRCALLSHRDGAKVYLGTARTEKQYETTENVLAFLCQQGFSLENALYAVRAVPRFTLGCVLLDQERQVAKEERETPTTDSMPPLLRQARELTDHQGAEPAFLFGLELIICGLEKQLKCESGS
modifications: rSuR L1-34
B3: L6-1B03 (protein)
chain: MGSRLDKSKVINSALELLNEVGIEGLTTRKLAQKLGVEQPTLYWHVKNKRALLDALAIEMMDRHATHICPLEGESWQDFLRNNAKSMRCALLSHRDGAKVCLGTRWTEQQYEAAENMLAFLCQQGFSLENALYAVSAVRVFTLGCVLFDQESQVAKEERETPTTASMPPLLRQAWELKDHQGAEPAFLFGLELIICGLEKQLKCESGS
modifications: Sulfonylurea responsive repressor L6-1B03
B4: L6-5G06 (protein)
chain: MGSRLDKSKVINSALELLNEVGIEGLTTRKLAQKLGVEQPTLYWHVKNKRALLDALAIEMMDRHQTHYCPLEGESWQDFLRNNAKSMRCALLSHRDGAKVCLGTRWTEQQYETAENQLAFLCQQGFSLENALYAVSAVRVFTLGCVLFDQELQVAKEERETPTTASMPPLLRQGWELKDHQGAEPAFLFGLELIICGLEKQLKCESGS
modifications: Sulfonylurea responsive repressor L6-5G06
B5: L6-2C09 (protein)
chain: MGSRLDKSKVINSALELLNEVGIEGLTTRKLAQKLGVEQPTLYWHVKNKRALLDALAIEMMDRHQTHYCPLEGESWQDFLRNTAKSMRCALLSHRDGAKVCLGTRWTEQLYETAENQLAFLCQQGFSLENALYAMSAVRVFTLGCVLFDQELQVAKEERETPTTASMPPLLRQAWELKDHQGAEPAFLFGLELIICGLEKQLKCESGS
modifications: Sulfonylurea responsive repressor L6-2C09
B6: L6-2D07 (protein)
chain: MGSRLDKSKVINSALELLNEVGIEGLTTRKLAQKLGVEQPTLYWHVKNKRALLDALAIEMMDRHQTHFCPLEGESWQDFLRNTAKSMRCALLSHRDGAKVCLGTRWTEQQYETAENMLAFLCQQGFSLENALYAMSAVRVFTLGCVLFDQESQVAKEERETPTTASMPPLVRQAWELKDHQGAEPAFLFGLELIICGLEKQLKCESGS
modifications: Sulfonylurea responsive repressor L6-2D07
B7: L6-4D10 (protein)
chain: MGSRLDKSKVINSALELLNEVGIEGLTTRKLAQKLGVEQPTLYWHVKNKRALLDALAIEMMDRHQTHYCPLEGESWQDFLRNNAKSMRCALLSHRDGAKVCLGTRWTEKQYESAENMLAFLCQQGFSLENALYAVSAVRVFTLGCVLFDQESQVAKEERETPTTASMPPLLRQAWELKDHQGAEPAFLFGLELIICGLEKQLKCESGS
modifications: Sulfonylurea responsive repressor L6-4D10
B8: L6-3H02: SuR polypeptide, SEQ ID NO: 94 (protein)
chain: MGSRLDKSKVINSALELLNEVGIEGLTTRKLAQKLGVEQPTLYWHVKNKRALLDALAIEMMDRHATHYCPLEGESWQDFLRNTAKSMRCALLSHRDGAKVCLGTRWTEQHYESAENMLAFLCQQGFSLENALYAVSAVRVFTLGCVLFDQESQVAKEERETPTTASMPPLVRQAWELKVHQGAEPAFLFGLELIICGLEKQLKCESGS
modifications: Sulfonylurea responsive repressor L6-3H02
B9: L6-5F05 (protein)
chain: MGSRLDKSKVINSALELLNEVGIEGLTTRKLAQKLGVEQPTLYWHVKNKRALLDALAIEMMDRHATHICPLEGESWQDFLRNNAKSMRCALLSHRDGAKVCLGTRWTEQQYEAAENQLAFLCQQGFSLENALYAVSAVRVFTLGCVLFDQELQVAKEERETPTTASMPPLLRQAWELKDHQGAEPAFLFGLELIICGLEKQLKCESGS
modifications: Sulfonylurea responsive repressor L6-5F05
B10: L1-25: library L1 reverse repressor hit (SEQ ID NO: 1206-1213) (protein)
chain: MGSRLDKSKVINSALELLNEVGIEGLTTRKLAQKLGVEQPTLYWHVKNKRALLDALAIEMLDRHATHFCPLEGESWQDFLRNTAKSMRCALLSHRDGAKVLLGTATTEKQYETLENLLAFLYQQGFSLENALYAWQAVWRFTLGCVLIDQETQVAKEERETPTTDSMPPLLRQAVELKDHQGAEPAFLFGLELIICGLEKQLKCETGS
modifications: rSuR L1-25

System: tetA promoter (PtetA)-lacZ reporter in E. coli KM3
Format: cell-based
Settings: for relative β-galactosidase activity, inducer atc / relative β-galactosidase activity, inducer Ci / relative β-galactosidase activity, inducer Cs / relative β-galactosidase activity, inducer Es / relative β-galactosidase activity, inducer Ms / relative β-galactosidase activity, inducer Ns / relative β-galactosidase activity, inducer Blank / relative β-galactosidase activity, inducer Rs / relative β-galactosidase activity, inducer Sm / relative β-galactosidase activity, inducer Ts / relative β-galactosidase activity, inducer Tb: Table 6, reverse repressor hits; for relative β-galactosidase activity, inducer atc: anhydrotetracycline; for relative β-galactosidase activity, inducer Ci: chlorimuron; for relative β-galactosidase activity, inducer Ci / relative β-galactosidase activity, inducer Cs / relative β-galactosidase activity, inducer Es / relative β-galactosidase activity, inducer Ms / relative β-galactosidase activity, inducer Ns / relative β-galactosidase activity, inducer Rs / relative β-galactosidase activity, inducer Sm / relative β-galactosidase activity, inducer Ts / relative β-galactosidase activity, inducer Tb: same plate assay format as Table 4; for relative β-galactosidase activity, inducer Cs: chlorsulfuron; for relative β-galactosidase activity, inducer Es: ethametsulfuron; for relative β-galactosidase activity, inducer Ms: metsulfuron; for relative β-galactosidase activity, inducer Ns: nicosulfuron; for relative β-galactosidase activity, inducer Blank / Control 84 hr (colony color intensity, background activity without inducer): no inducer; for relative β-galactosidase activity, inducer Rs: rimsulfuron; for relative β-galactosidase activity, inducer Sm: sulfometuron; for relative β-galactosidase activity, inducer Ts: thifensulfuron; for relative β-galactosidase activity, inducer Tb: tribenuron; for 0.2 ppm 48 hr (colony color intensity, induction by chlorsulfuron) / Control 84 hr (colony color intensity, background activity without inducer): M9 assay plates, colony color intensity by ImageJ; for 0.2 ppm 48 hr (colony color intensity, induction by chlorsulfuron): 0.2 ppm chlorsulfuron as inducer, 48 hr at 30° C.; for Control 84 hr (colony color intensity, background activity without inducer): 84 hr at 30° C.

Molecule | relative β-galactosidase activity, inducer atc | relative β-galactosidase activity, inducer Ci | relative β-galactosidase activity, inducer Cs | relative β-galactosidase activity, inducer Es | relative β-galactosidase activity, inducer Ms | relative β-galactosidase activity, inducer Ns | relative β-galactosidase activity, inducer Blank | relative β-galactosidase activity, inducer Rs | relative β-galactosidase activity, inducer Sm | relative β-galactosidase activity, inducer Ts | relative β-galactosidase activity, inducer Tb | 0.2 ppm 48 hr/Control 84 hr | 0.2 ppm 48 hr (colony color intensity, induction by chlorsulfuron) | Control 84 hr (colony color intensity, background activity without inducer)
B1 | 8.25 | 0.76 | 3.74 | 2.11 | 4.29 | 5.34 | 7.59 | 10.32 | 5.02 | 5.51 | 4.71 |  |  | 
B2 | 3.68 | 0.43 | 0.85 | 1.33 | 1.47 | 2.91 | 2.37 | 2.30 | 2.00 | 2.97 | 2.26 |  |  | 
B3 |  |  |  |  |  |  |  |  |  |  |  | 4.6 | 30.0 | 6.6
B4 |  |  |  |  |  |  |  |  |  |  |  | 4.9 |  | 7.0
B5 |  |  |  |  |  |  |  |  |  |  |  | 2.6 |  | 5.2
B6 |  |  |  |  |  |  |  |  |  |  |  | 3.4 | 20.0 | 5.8
B7 |  |  |  |  |  |  |  |  |  |  |  | 3.7 |  | 5.0
B8 |  |  |  |  |  |  |  |  |  |  |  | 2.8 |  | 5.6
B9 |  |  |  |  |  |  |  |  |  |  |  | 4.1 | 22.0 | 5.4
B10 | 1.22 | 0.11 | 0.28 | 0.13 | 0.32 | 1.21 | 1.17 | 1.08 | 0.63 | 0.64 | 1.72 |  |  | 
